These results are taken from patent US7763426B2, “Probes and methods for detection of Escheridia coli and antibiotic resistance” (priority 2004, dated 2010).

Series [1] concerns bacterial 16S rRNA. Nature of the series: Sensor validation using control ATCC bacterial strains, UTI Chip with 7-detector-probe mixture (Example 3). Type of series: binding. The text has this:
The following American Type Culture Collection (ATCC) strains were obtained from the UCLA Clinical Microbiology Laboratory: Escherichia coli strain 35218, Klebsiella pneumoniae strain 13883, K. oxytoca strain 49131, Enterobacter aerogenes strain 13048. E. cloacae strain 13047, Proteus mirabilis strain 12453, Pseudomonas aeruginosa strain 10145, Citrobacter freundii strain 8090, and Enterococcus faecalis strain 49532. Additional strains of uropathogenic bacteria were obtained from the UCLA Uropathogen Specimen Bank: E. coli strain Ec103, K. pneumoniae strain Kp295, P. mirabilis strain Pm278, P. aeruginosa strain Pa3, and E. faecalis strain Eo111. Isolation of uropathogens from clinical urine specimens was approved by the UCLA and VA Greater Los Angeles Healthcare System institutional Review Boards. The identity of all clinical strains was determined by standard biochemical assays and verified by 16S rRNA gene sequencing. The 16S rRNA genes were PCR amplified with universal primers 8UA and 1485B.^17 The amplified product was purified by using the QIAquick PCR purification kit (QIAGEN, Inc., Chatsworth, Calif.) and directly sequenced using primer pairs 8UA/907B and 774A/1485B as described previously.^18 DNA sequencing was performed at the W. M. Keck Foundation Biotechnology Resource Laboratory (New Haven, Conn.). Isolates were inoculated into Brucella broth with 15% glycerol (BBL, Maryland) and were stored at −70° C. Bacteria were grown overnight in Luria Broth (LB), inoculated into LB and grown to logarithmic phase as measured by OD600. Concentration of the logarithmic phase specimens was determined by serial plating, typically yielding 10^7-10^8 bacteria/ml.
Logarithmic phase bacterial cells were concentrated by centrifugation at 10.000 rpm for 5 min, Lysis of bacterial cells was performed by addition of 10 μl of one or more of the following […]. 0.1% Triton X-100 in 20 mM Tris-HCl, pH 8.0, 2 mM EDTA and 1 mg/ml lysozyme (Sigma). After incubation at room temperature, 50 μl of the detector probe (0.25 μM) in 2.5% bovine serum albumin (Sigma)—1 M phosphate buffer, pH 7.4, was added to the bacterial lysate. The detector probe/bacterial lysate mixture was incubated for 10 min at 65° C. to allow hybridization of the detector probe to target rRNA. 4 μl of the bacterial lysate/detector probe mixture was deposited on each of the working electrodes in the sensor array. The sensor array was incubated for 10 min at 65° C. in a humidified chamber. After washing and drying, 4 μl of 0.5 U/mil anti-fluorescein horseradish peroxidase (HRP) Fab conjugate (Roche, diluted in 0.5% casein in 1 M sodium phosphate buffer, pH 7.4) were deposited on each of the working electrodes for 10-15 min. After washing and drying, a prefabricated plastic well manifold (GeneFluidics) was bonded to the sensor array. 50 μl of HRP substrate solution (K-Blue Aqueous TMB, Neogen, Lexington, Ky.) was placed on each of the sensors in the array so as to cover all three of the electrodes. Measurements were immediately and simultaneously taken for all 16 sensors. The entire assay protocol was completed within 45 min from the initiation of bacterial lysis. Amperometric current vs. time was measured using a multichannel potentiostat (GeneFluidics). The voltage was fixed at −200 mV (vs. reference), and the electroreduction current was measured at 60 sec after the HRP redox reaction reached steady state. Negative controls were included in each experiment in which 1 M phosphate buffer, pH 7.4, was used as the target instead of bacterial lysate. All samples were analyzed in duplicate.
Experiments were performed on ATCC strains to verify probe specificity using a 16-sensor array “UTI chip” in which the UNI782C, EB1176C, EC434C, KE434C, PM187C, PA102C, and EF207C 5′-biotinylated capture probes (defined in Table 1) were tested in duplicate. The two remaining sensors in the array served as negative controls (using capture probe UNI782C without bacterial lysate). […]

Series [2] concerns bacterial 16S rRNA. Nature of the series: Species specificity of short probe pairs, 16 sensor array at ambient temperature (Example 5). It is filed as binding.
The test system of series [3] is E. coli 16S rRNA. Nature of the series: Amperometric detection of E. coli 16S rRNA with short probes at ambient temperature (Example 5). The following applies: for sensitivity (threshold): fivefold dilutions of E. coli cells. It is filed as binding, Escherichia coli.
Series [4] relates to bacterial 16S rRNA. Put plainly: Clinical validity study: UTI Chip on blinded clinical urine specimens. Type of series: binding. On the procedure:
Amperometric detection of bacterial 16S rRNA. An overview of the electrochemical sensor detection strategy is presented in panel C of FIG. 1. One ml of bacteria in Luria broth, inoculated clean urine, or clinical urine samples was centrifuged at 10,000×g for 5 min. The supernatant was discarded and the bacteria were lysed by resuspension of the pellet in 10 μl of 1 M NaOH and incubation at room temperature for 5 min. In some experiments, addition of 1M NaOH was preceded by resuspension of the bacterial pellet in 10 μl of 0.1% Triton X-100, 2 mM EDTA, and 1 mg/ml lysozyme (Sigma) in 20 mM Tris-HCl, pH 8.0, and incubation at room temperature for 5 min. 50 μl of the detector probe (0.25 μM) in 2.5% bovine serum albumin (Sigma, St. Louis, Mo.) 1 M phosphate buffer, pH 7.4, were added to the bacterial lysate and incubated for 10 min at 65° C. to allow target-probe hybridization. 4 μl of the bacterial lysate/detector probe mixture was deposited on each of the working electrodes in the sensor array and incubated for 15 min at 65° C. in a humidified chamber. After washing and drying, 4 μl of 0.5 U/ml anti-fluorescein horseradish peroxidase (HRP) Fab fragments (Roche, diluted in 0.5% casein in 10 mM phosphate buffered saline, pH 7.4) were deposited on each of the working electrodes for 15 min. After washing and drying, a prefabricated plastic well manifold (GeneFluidics, Monterey Park, Calif.) was bonded to the sensor array. The sensor array was put into the chip reader (FIG. 18) and 50 μl of 3,3′,5,5′-tetramethylbenzidine (TMB), H2O2 solution (K-Blue Low Activity TMB Substrate, Neogen, Lexington, Ky.) was placed on each of the sensors in the array so as to cover all three electrodes of each sensor. Electrochemical measurements are immediately and simultaneously taken for all 16 sensors. For each array, negative control (NC) sensors were tested including the UNI capture probe, detector probe, and 2.5% bovine serum albumin (Sigma, St, Louis, Mo.) in 1 M phosphate buffer, pH 7.4, instead of bacterial lysate. The entire assay protocol was completed within 45 min from the time when bacterial lysis was commenced. Amperometric current vs. time was measured using a multichannel potentiostat (GeneFluidics). The voltage was fixed at −200 mV (vs. reference), and the electroreduction current was measured at 60 s after the HRP redox reaction reached steady state.
Clinical validity study design. Clinical urine specimens were received from routine urine cultures collected from inpatients and outpatients and submitted to the UCLA Clinical Microbiology Laboratory. Routine plating on tripticase soy agar with 5% sheep blood was performed on each specimen for phenotypic identification and colony counting while an aliquot of each specimen was held at 4° C. overnight. On the day after plating, specimens were selected for inclusion in the study on the basis of a rapid indole test for the purpose of including uropathogens other than Escherichia coli in approximately one-half of the specimens. The other half of the specimens were divided between E. coli-containing specimens and specimens determined to have ““no significant growth” or no growth” (see definitions below). Because most UTIs involve a single uropathogen, specimens determined by the clinical microbiology laboratory to have more than one organism present were excluded. Blinded specimens selected for inclusion in the study were stripped of patient identifiers and any microbiological data before delivery to the research laboratory for testing with the electrochemical sensor array.
Experiments were performed on all specimens using the 16-sensor array ‘UTI Chip’, in which the UNI, EB, EC, PM, KE, PA, and EF capture probes (defined in Tables 1 and 2) were tested in duplicate. The two remaining sensors served as negative controls (including capture and detector probes without bacterial lysate). […]

Series [5] concerns 16S rRNA in lysates of uropathogens. Nature of the series: Species specificity of uropathogen probe pairs with the electrochemical sensor array (Example 1). It is filed as binding. The following applies: probe pairs of Table 1.
[6] abbreviates: specimens with Escherichia coli.
The mark [7] stands for this setting: specimens with Proteus mirabilis.
[8] abbreviates: No Significant Growth specimens.
[9] abbreviates: specimens with Enterococcus species.

“Also recorded” adds a separate entry of the source. {Fluorescein} = fluorescein label (binding site for anti-fluorescein Fab-HRP); {Biotin} = biotin (capture probe anchor)

For the molecule “GTCAATGAGCAAAGGTATTAACTTTACTCCCTTCC (DNA GTCAATGAGCAAAGGTATTAACTTTACTCCCTTCC; chemistry not given here; listed as Escherichia coli) [EC434C]”, the capture probe specificity entry in series [1] was “positive for E. coli”.
For the molecule “GTCAATCGNCRAGGTTATTAACCTYAHCGCCTTCC (DNA GTCAATCGMCRAGGTTATTAACCTYAHCGCCTTCC; chemistry not given here; listed as Klebsiella pneumoniae) [KE434C]”, the capture probe specificity result in series [1] is reported as “positive for all Enterobacteriaceae except E. coli”.
Take “EC439C (15 mer)/EC424D (15 mer): E. coli probe pair, SEQ ID NO: 44 and 45 (DNA 1 TATTAACTTTACTCC; DNA 2 CTTCCTCCCCGCTGA; chemistry not given here; listed as Escherichia coli)”: the “cross-reactivity with P. aeruginosa” value in series [2] (ambient temperature) was “Weak cross-reactivity”. For the same molecule, the Species detected result in series [2] (ambient temperature hybridization) is reported as “Ec”. Further, the Species not detected result in series [2] (ambient temperature, * cross-reactivity at a level significantly less than with the target species) is “Ea, Ef, Kp, Pa*, Pm”. The molecule also gave a mean current in series [3] of 1605 negative nanoamperes. Also, the “sensitivity (threshold)” value in series [3] (listed as 15mer capture and detector probes) is recorded as “approximately 250 cells”; in series [3] (listed as E. coli-specific 15mer probe pairs) it was “approximately 173 cells”.
In the case of “CCCACTTTCTCCCTCAGGACGTATGCGGTATTAGC (DNA CCCACTTTCTCCCTCAGGACGTATGCGGTATTAGC; chemistry not given here; listed as Pseudomonas aeruginosa) [PA111C]”, the capture probe specificity entry in series [1] is on record as “P. aeruginosa”.
Same read-out and setting: for “CGGACTACGACRYACTTTATGAGGTCCGCTTGCTC (DNA CGGACTACGACRYACTTTATGAGGTCCGCTTGCTC; chemistry not given here; listed as Enterobacter sp.) [EB1172C]” the value was “positive for all members of the family Enterobacteriaceae tested and negative for P. aeruginosa and E. faecalis”.
Still for that read-out and setting: for “GGGTTCATCCGATAGTGCAAGGTCCGAAGAGCCCC (DNA GGGTTCATCCGATAGTGCAAGGTCCGAAGAGCCCC; chemistry not given here; listed as Proteus mirabilis) [PM188C]” the value was “specific for P. mirabilis”; for “CATCGTTTACGGCGTGGACTACCAGGG (DNA CATCGTTTACGGCGTGGACTACCAGGG; chemistry not given here) [UNI782C]”, “detected all bacterial uropathogens tested”.
The same measure, in the same setting: for “TTGGTGAGCCGTTACCTCACCAACTAGCTAATGCA (DNA TTGGTGAGCCGTTACCTCACCAACTAGCTAATGCA; chemistry not given here; listed as Enterococcus sp.) [EF207C]” the value was “E. faecalis”.

B1: EC: Escherichia coli probe pair: capture 449 (35 mer) SEQ ID NO: 1, detector 408 (35 mer) SEQ ID NO: 2 (nucleic acid, listed as Escherichia coli)
DNA 1: GTCAATGAGCAAAGGTATTAACTTTACTCCCTTCC
DNA 2: CTGAAAGTACTTTACAACCCGAAGGCCTTCTTCAT
modifications: DNA 1: 5' {Biotin}, sugars by position and backbone not given here; DNA 2: 5' {Fluorescein}, sugars by position and backbone not given here
Turning to B1, in series [4] (setting [6]), the “Mean (range)” value is on record as 1.06 (0.48-1.59) log10 units over background and the “Positive/Total = Percent” value was “Ec 26/26 = 100%”. Also, in series [5], the Species detected result was “Ec” and the Species not detected result is “Cf, Ea, El Eo, Ko, Kp,; also recorded: Pa, Pm”.

B2: PM: Proteus mirabilis probe pair: capture 202 (35 mer) SEQ ID NO: 3, detector 162 (35 mer) SEQ ID NO: 4 (nucleic acid, listed as Proteus mirabilis)
DNA 1: GGGTTCATCCGATAGTGCAAGGTCCGAAGAGCCCC
DNA 2: GGTCCGTAGACATTATGCGGTATTAGCCACCGTTT
modifications: DNA 1: 5' {Biotin}, sugars by position and backbone not given here; DNA 2: 5' {Fluorescein}, sugars by position and backbone not given here
As to B2, in series [4] (setting [7]), the “Mean (range)” value is listed as 0.74 (0.48-0.96) log10 units over background and the “Positive/Total = Percent” value was “Pm 3/3 = 100%”. In series [5], the Species detected result is listed as “Pm” and the Species not detected result was “Cf, Ea, Ec, El, Eo, Ko, Kp, Pa”.

B3: EF: Enterococcus spp probe pair: capture SEQ ID NO: 9, detector SEQ ID NO: 10 (nucleic acid, listed as Enterococcus sp.)
DNA 1: TTGGTGAGCCGTTACCTCACCAACTAGCTAATGCA
DNA 2: GTCCATCCATCAGCGACACCCGAAAGCGCCTTTCA
modifications: DNA 1: 5' {Biotin}, sugars by position and backbone not given here; DNA 2: 5' {Fluorescein}, sugars by position and backbone not given here
As for B3, in series [4] (setting [8]), the “Mean (range)” value is 0.31 log10 units over background and the “Positive/Total = Percent” value is reported as “Ef 1/8 = 13%”. Further, in series [4] (setting [9]), the “Mean (range)” value is 0.99 (0.63-1.36) log10 units over background and the “Positive/Total = Percent” value is reported as “Ef 2/8 = 25%”. In series [5], the Species detected entry is on record as “Ef, Eo” and the Species not detected result was “Ec, Kp, Pa, Pm, Sa”.
